Results published in publication PMC10063552, “Utilizing genetic code expansion to modify N-TIMP2 specificity towards MMP-2, MMP-9, and MMP-14” (Scientific Reports, 2023).

Columns and labels:
Experiment in all cases: enzyme inhibition assay (cleavage of a chromogenic substrate, fit to Morrison's tight binding equation); MMP-2ACT (0.6 nM), MMP-9CAT (3 nM) or MMP-14CAT (1 nM) incubated with 0-25 nM N-TIMP2 variant in 50 mM HEPES, 10 mM CaCl2, 0.05% Brij-35, 1 mM DTNB, pH 7.5, 1 h at 37 °C; then 100 µM chromogenic substrate, absorbance at 412 nm at 37 °C; Ki from three independent experiments
Conditions in all cases: both partners purified
[1] = target: T1, activated MMP-2 (MMP-2ACT) (human, APMA-activated in vitro (propeptide 30-109 removed); catalytic Zn2+, structural Zn2+ and Ca2+ ions. Limits are not printed: full-length active chain taken from the UniProt feature. The tables label it)
T1 chain: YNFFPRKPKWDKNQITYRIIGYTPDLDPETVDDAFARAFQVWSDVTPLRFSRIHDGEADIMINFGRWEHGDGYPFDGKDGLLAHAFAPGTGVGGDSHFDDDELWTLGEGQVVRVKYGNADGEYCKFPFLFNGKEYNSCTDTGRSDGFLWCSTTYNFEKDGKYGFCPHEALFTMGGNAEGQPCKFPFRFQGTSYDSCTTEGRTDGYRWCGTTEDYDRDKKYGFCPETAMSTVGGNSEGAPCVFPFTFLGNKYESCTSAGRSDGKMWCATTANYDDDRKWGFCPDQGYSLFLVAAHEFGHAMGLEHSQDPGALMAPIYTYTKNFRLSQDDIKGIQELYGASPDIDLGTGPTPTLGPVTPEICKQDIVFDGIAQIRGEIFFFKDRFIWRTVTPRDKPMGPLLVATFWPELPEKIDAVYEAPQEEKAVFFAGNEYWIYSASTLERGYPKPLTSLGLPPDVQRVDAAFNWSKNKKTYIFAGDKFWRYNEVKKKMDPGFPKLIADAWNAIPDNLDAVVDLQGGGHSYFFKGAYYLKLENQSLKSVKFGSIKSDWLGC

[2] = target: T2, human MMP-9 catalytic domain (MMP-9CAT) (human, UniProt P14780 107-215; P14780 391-443)
T2 construct: Matrix metalloproteinase-9 (MMP-9), human, catalytic domain, first stretch, residues 107-215; Matrix metalloproteinase-9 (MMP-9), human, catalytic domain, second stretch, residues 391-443 (residues 216-390 left out); no linker between the two stretches is stated
T2 chain (looked up): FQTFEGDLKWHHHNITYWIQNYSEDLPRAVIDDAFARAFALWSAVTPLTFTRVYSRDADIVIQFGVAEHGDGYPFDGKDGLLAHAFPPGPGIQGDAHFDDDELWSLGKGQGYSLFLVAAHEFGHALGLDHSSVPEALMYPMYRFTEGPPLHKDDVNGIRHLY

[3] = target: T3, human MMP-14 catalytic domain (MMP-14CAT) (human, UniProt P50281 112-292)
T3 construct: Matrix metalloproteinase-14 (MMP-14), human, catalytic domain, residues 112-292

- Ki [1]: 233 pM
- Ki [2]: 322 pM
- Ki [3]: 711 pM
B1: N-terminal domain of TIMP2 (N-TIMP2), wild type (domain or fragment, human, UniProt P16035 27-153, looked up)
chain: CSCSPVHPQQAFCNADVVIRAKAVSEKEVDSGNDIYGNPIKRIQYEIKQIKMFKGPEKDIEFIYTAPSSAVCGVSLDVGGKKEYLIAGKAEGDGKMHITLCDFIVPWDTLSTTQKKSLNHRYQMGCE
notes: numbers count on: the mature protein (Cys1 is the N-terminal residue); Cloned into the pMECS vector; also called wild-type N-TIMP2; parental N-TIMP2; source: E. coli WK6, periplasmic extract, purified (Ni-NTA)
